Measured values from US20170266254A1 (AILERON THERAPEUTICS, published 2017).
Bridges are numbered along the chain shown (N, C = ends). [ ]: non-standard residue; d: D form. S5 = C=CCCC[C@](C)(N)C(=O)O

T1: C-terminally 6x Histidine-tagged Beta-Catenin (aa 134-668, 59 KD) (UniProt P35222 134-668)
T1 construct: range 134-668; Armadillo repeat region
T1 sequence: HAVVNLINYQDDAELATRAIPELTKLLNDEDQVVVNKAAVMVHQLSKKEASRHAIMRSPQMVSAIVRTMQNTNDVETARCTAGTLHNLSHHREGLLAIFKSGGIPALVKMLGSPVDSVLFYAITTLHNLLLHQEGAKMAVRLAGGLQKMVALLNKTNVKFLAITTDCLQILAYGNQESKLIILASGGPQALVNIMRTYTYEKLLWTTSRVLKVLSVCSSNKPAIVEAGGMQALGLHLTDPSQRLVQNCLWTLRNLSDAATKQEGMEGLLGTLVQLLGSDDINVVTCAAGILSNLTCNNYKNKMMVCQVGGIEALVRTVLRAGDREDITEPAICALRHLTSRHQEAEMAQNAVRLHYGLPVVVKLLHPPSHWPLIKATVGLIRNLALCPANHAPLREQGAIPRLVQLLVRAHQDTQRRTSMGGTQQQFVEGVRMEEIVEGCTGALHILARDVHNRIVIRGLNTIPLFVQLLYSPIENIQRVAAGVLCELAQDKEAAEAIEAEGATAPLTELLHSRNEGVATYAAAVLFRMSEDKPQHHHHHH

B1: SP13 (peptide)
peptide: Ac-SAERDLADVKS[S5]LVN[S5]SEKR-NH2
modifications: staple 12-16
SMILES: CC(=O)N[C@@H](CO)C(=O)N[C@@H](C)C(=O)N[C@@H](CCC(=O)O)C(=O)N[C@@H](CCCNC(=N)N)C(=O)N[C@@H](CC(=O)O)C(=O)N[C@@H](CC(C)C)C(=O)N[C@@H](C)C(=O)N[C@@H](CC(=O)O)C(=O)N[C@H](C(=O)N[C@@H](CCCCN)C(=O)N[C@@H](CO)C(=O)N[C@@]1(C)CCCC=CCCC[C@@](C)(C(=O)N[C@@H](CO)C(=O)N[C@@H](CCC(=O)O)C(=O)N[C@@H](CCCCN)C(=O)N[C@@H](CCCNC(=N)N)C(N)=O)NC(=O)[C@H](CC(N)=O)NC(=O)[C@H](C(C)C)NC(=O)[C@H](CC(C)C)NC1=O)C(C)C
B2: SP23 (peptide)
peptide: Ac-SAE[S5]DLA[S5]VKSSLVNESEKR-NH2
modifications: staple 4-8
SMILES: CC(=O)N[C@@H](CO)C(=O)N[C@@H](C)C(=O)N[C@@H](CCC(=O)O)C(=O)N[C@@]1(C)CCCC=CCCC[C@@](C)(C(=O)N[C@H](C(=O)N[C@@H](CCCCN)C(=O)N[C@@H](CO)C(=O)N[C@@H](CO)C(=O)N[C@@H](CC(C)C)C(=O)N[C@H](C(=O)N[C@@H](CC(N)=O)C(=O)N[C@@H](CCC(=O)O)C(=O)N[C@@H](CO)C(=O)N[C@@H](CCC(=O)O)C(=O)N[C@@H](CCCCN)C(=O)N[C@@H](CCCNC(=N)N)C(N)=O)C(C)C)C(C)C)NC(=O)[C@H](C)NC(=O)[C@H](CC(C)C)NC(=O)[C@H](CC(=O)O)NC1=O
B3: SP37 (peptide)
peptide: LGANDELISFADEGAQEEKSSNNSSAARDLADVKSSLV
modifications: not fully specified; N-terminal acetyl; C-terminal amide; $ = (S)-alpha-(2'-pentenyl)alanine at positions 11 and 15 (first crosslink) and 27 and 31 (second crosslink), each pair joined by an all-carbon crosslinker with one double bond
B4: SP28 (peptide)
peptide: Ac-LGANDELISFKDEG[S5]QEE[S5]SSNNSSAERDLADVKSSLV-NH2
modifications: staple 15-19
SMILES: CC[C@H](C)[C@H](NC(=O)[C@H](CC(C)C)NC(=O)[C@H](CCC(=O)O)NC(=O)[C@H](CC(=O)O)NC(=O)[C@H](CC(N)=O)NC(=O)[C@H](C)NC(=O)CNC(=O)[C@H](CC(C)C)NC(C)=O)C(=O)N[C@@H](CO)C(=O)N[C@@H](Cc1ccccc1)C(=O)N[C@@H](CCCCN)C(=O)N[C@@H](CC(=O)O)C(=O)N[C@@H](CCC(=O)O)C(=O)NCC(=O)N[C@@]1(C)CCCC=CCCC[C@@](C)(C(=O)N[C@@H](CO)C(=O)N[C@@H](CO)C(=O)N[C@@H](CC(N)=O)C(=O)N[C@@H](CC(N)=O)C(=O)N[C@@H](CO)C(=O)N[C@@H](CO)C(=O)N[C@@H](C)C(=O)N[C@@H](CCC(=O)O)C(=O)N[C@@H](CCCNC(=N)N)C(=O)N[C@@H](CC(=O)O)C(=O)N[C@@H](CC(C)C)C(=O)N[C@@H](C)C(=O)N[C@@H](CC(=O)O)C(=O)N[C@H](C(=O)N[C@@H](CCCCN)C(=O)N[C@@H](CO)C(=O)N[C@@H](CO)C(=O)N[C@@H](CC(C)C)C(=O)N[C@H](C(N)=O)C(C)C)C(C)C)NC(=O)[C@H](CCC(=O)O)NC(=O)[C@H](CCC(=O)O)NC(=O)[C@H](CCC(N)=O)NC1=O
B5: SP25 (peptide)
peptide: Ac-LGANAELISFKDEGEQEEKSSENSSAERDLADAKSSAV-NH2
notes: Linear, not crosslinked; differs from SP14 by Ala at peptide positions 5, 33 and 37
B6: SP30 (peptide)
peptide: Ac-LGANDELISFKDEGEQEEKSSENSSA[S5]RDL[S5]DVKSSLV-NH2
modifications: staple 27-31
SMILES: CC[C@H](C)[C@H](NC(=O)[C@H](CC(C)C)NC(=O)[C@H](CCC(=O)O)NC(=O)[C@H](CC(=O)O)NC(=O)[C@H](CC(N)=O)NC(=O)[C@H](C)NC(=O)CNC(=O)[C@H](CC(C)C)NC(C)=O)C(=O)N[C@@H](CO)C(=O)N[C@@H](Cc1ccccc1)C(=O)N[C@@H](CCCCN)C(=O)N[C@@H](CC(=O)O)C(=O)N[C@@H](CCC(=O)O)C(=O)NCC(=O)N[C@@H](CCC(=O)O)C(=O)N[C@@H](CCC(N)=O)C(=O)N[C@@H](CCC(=O)O)C(=O)N[C@@H](CCC(=O)O)C(=O)N[C@@H](CCCCN)C(=O)N[C@@H](CO)C(=O)N[C@@H](CO)C(=O)N[C@@H](CCC(=O)O)C(=O)N[C@@H](CC(N)=O)C(=O)N[C@@H](CO)C(=O)N[C@@H](CO)C(=O)N[C@@H](C)C(=O)N[C@@]1(C)CCCC=CCCC[C@@](C)(C(=O)N[C@@H](CC(=O)O)C(=O)N[C@H](C(=O)N[C@@H](CCCCN)C(=O)N[C@@H](CO)C(=O)N[C@@H](CO)C(=O)N[C@@H](CC(C)C)C(=O)N[C@H](C(N)=O)C(C)C)C(C)C)NC(=O)[C@H](CC(C)C)NC(=O)[C@H](CC(=O)O)NC(=O)[C@H](CCCNC(=N)N)NC1=O
B7: SP26 (peptide)
peptide: LGANDELISFADEGAQEEKSSNNSSAERDLADVKSSLV
modifications: not fully specified; N-terminal acetyl; C-terminal amide; $ = (S)-alpha-(2'-pentenyl)alanine at positions 11 and 15, joined by an all-carbon crosslinker with one double bond
B8: SP24 (peptide)
peptide: Ac-LGANAELISFKDEGEQEEKSSENSSAERDLADVKSSLV-NH2
notes: Linear, not crosslinked; differs from SP14 by Asp to Ala at the fifth residue of the peptide
B9: SP14 (peptide)
peptide: Ac-LGANDELISFKDEGEQEEKSSENSSAERDLADVKSSLV-NH2
notes: Linear, not crosslinked
B10: SP27 (peptide)
peptide: Ac-LGANDELISFK[S5]EGE[S5]EEKSSNNSSAERDLADVKSSLV-NH2
modifications: staple 12-16
SMILES: CC[C@H](C)[C@H](NC(=O)[C@H](CC(C)C)NC(=O)[C@H](CCC(=O)O)NC(=O)[C@H](CC(=O)O)NC(=O)[C@H](CC(N)=O)NC(=O)[C@H](C)NC(=O)CNC(=O)[C@H](CC(C)C)NC(C)=O)C(=O)N[C@@H](CO)C(=O)N[C@@H](Cc1ccccc1)C(=O)N[C@@H](CCCCN)C(=O)N[C@@]1(C)CCCC=CCCC[C@@](C)(C(=O)N[C@@H](CCC(=O)O)C(=O)N[C@@H](CCC(=O)O)C(=O)N[C@@H](CCCCN)C(=O)N[C@@H](CO)C(=O)N[C@@H](CO)C(=O)N[C@@H](CC(N)=O)C(=O)N[C@@H](CC(N)=O)C(=O)N[C@@H](CO)C(=O)N[C@@H](CO)C(=O)N[C@@H](C)C(=O)N[C@@H](CCC(=O)O)C(=O)N[C@@H](CCCNC(=N)N)C(=O)N[C@@H](CC(=O)O)C(=O)N[C@@H](CC(C)C)C(=O)N[C@@H](C)C(=O)N[C@@H](CC(=O)O)C(=O)N[C@H](C(=O)N[C@@H](CCCCN)C(=O)N[C@@H](CO)C(=O)N[C@@H](CO)C(=O)N[C@@H](CC(C)C)C(=O)N[C@H](C(N)=O)C(C)C)C(C)C)NC(=O)[C@H](CCC(=O)O)NC(=O)CNC(=O)[C@H](CCC(=O)O)NC1=O
B11: SP29 (peptide)
peptide: Ac-LGANDELISFKDEGE[S5]EEK[S5]SNNSSAERDLADVKSSLV-NH2
modifications: staple 16-20
SMILES: CC[C@H](C)[C@H](NC(=O)[C@H](CC(C)C)NC(=O)[C@H](CCC(=O)O)NC(=O)[C@H](CC(=O)O)NC(=O)[C@H](CC(N)=O)NC(=O)[C@H](C)NC(=O)CNC(=O)[C@H](CC(C)C)NC(C)=O)C(=O)N[C@@H](CO)C(=O)N[C@@H](Cc1ccccc1)C(=O)N[C@@H](CCCCN)C(=O)N[C@@H](CC(=O)O)C(=O)N[C@@H](CCC(=O)O)C(=O)NCC(=O)N[C@@H](CCC(=O)O)C(=O)N[C@@]1(C)CCCC=CCCC[C@@](C)(C(=O)N[C@@H](CO)C(=O)N[C@@H](CC(N)=O)C(=O)N[C@@H](CC(N)=O)C(=O)N[C@@H](CO)C(=O)N[C@@H](CO)C(=O)N[C@@H](C)C(=O)N[C@@H](CCC(=O)O)C(=O)N[C@@H](CCCNC(=N)N)C(=O)N[C@@H](CC(=O)O)C(=O)N[C@@H](CC(C)C)C(=O)N[C@@H](C)C(=O)N[C@@H](CC(=O)O)C(=O)N[C@H](C(=O)N[C@@H](CCCCN)C(=O)N[C@@H](CO)C(=O)N[C@@H](CO)C(=O)N[C@@H](CC(C)C)C(=O)N[C@H](C(N)=O)C(C)C)C(C)C)NC(=O)[C@H](CCCCN)NC(=O)[C@H](CCC(=O)O)NC(=O)[C@H](CCC(=O)O)NC1=O

Biological target: T1, C-terminally 6x Histidine-tagged …
Assay: competitive fluorescence polarization, FAM-labelled linear probe as competitor, His-tagged beta-catenin 134-668
Procedure: The following experiments are performed at room temperature unless otherwise noted. First, an assay buffer is prepared composed of 25 mM Tris-Hcl pH 7.5, 200 mM Sodium Chloride, and 5 mM CHAPS. Next, 1M DTT is added to assay buffer to a final concentration of 2 mM. […] Forty μl of this protein stock is added to all but six wells of a 96 well plate (which will serve as the free peptide and Blank). Test competitor peptides are diluted from 1 mM DMSO stocks to 2× working stocks in assay buffer. Further dilutions are made in assay buffer-DMSO as to maintain a constant DMSO concentration in all wells. The dilution is carried out such that the peptides have a working concentration range of 40 μM-0.7 μM (2×). As a benchmark, a linear, non-crosslinked peptide competitor is prepared as above but with a working concentration range of 13-0.7 μM. Fifty μl of the competitor 2× stocks are added to the 40 μl of protein solution previously transferred into the assay 96 well plate. Next, a 10× stock of the fluorescent probe is prepared. The probe is identical to the linear benchmark peptide except for the n-terminal conjugation of a FAM flourophore with Beta-Alanine spacer. A 1 mM DMSO stock of the probe is serially diluted to a final concentration of 25 nM (10×) and 10 μl of this stock is added to all wells except for those that will serve as the blank. The assay plate is stored in the dark and the reaction is allowed to run at room temperature for three hours. The reaction is then read on a Biotek Synergy 2 with the following settings: 100 ms delay, 40 measurements per well, with excitation filters of […], and emission filters of […]. Data is then analyzed in Graphpad Prism.

Row | Binder | IC50 [nM]
1 | B1 | ≥ 100000
2 | B2 | ≥ 100000
3 | B3 | 56
4 | B4 | 158
5 | B5 | ≥ 100000
6 | B6 | 98
7 | B7 | 42
8 | B8 | ≥ 100000
9 | B9 | 95
10 | B10 | 158
11 | B11 | 223
